The target of this assay is N-terminal domain of MtbClpC1 (residues 1-145) (Mycobacterium tuberculosis) (UniProt P9WPC9). Put plainly: differential scanning fluorimetry. (DSF heats the sample and reads unfolding from a dye or from intrinsic fluorescence.)
UniProt P9WPC9, sequence (P9WPC9 1-145): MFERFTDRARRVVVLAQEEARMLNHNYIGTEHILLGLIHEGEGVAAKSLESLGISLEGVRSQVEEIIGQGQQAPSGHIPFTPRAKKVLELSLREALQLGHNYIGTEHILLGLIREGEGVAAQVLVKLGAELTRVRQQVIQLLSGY

Usually ΔTm stands for the change in melting temperature against a reference sample. With ilamycin E (peptide), the ΔTm stood at 3 °C.
For ilamycin F (peptide) the value was 1 °C.

For the origin of these results see doi:10.1101/2024.02.24.581832.
